{"source": "patent US20260125483A1", "about": "“COMPOSITIONS OF IL-6/IL-6R ANTIBODIES AND METHODS OF USE THEREOF” (Tiziana Life Sciences PLC, priority 2020, published 2026)", "origin": "cited, not measured here", "molecules": {"B1": {"name": "39B9 VL1: IL-6R antibody, heavy chain variable region SEQ ID NO:2, light chain variable region SEQ ID NO: 4 (antibody, V domains shown)", "VH": "QVQLVQSGAEVKKPGSSVKVSCKASGGTFSSYAISWVRQAPGQGLEWMGGIIPLFDTTKYAQQFQGRVTITADESTSTAYMELSSLRSEDTAVFYCARDRDILTDYYPMGGMDVWGQGTTVTVSS", "VL": "AIQLTQSPSSLSASVGDRVTITCRASQGISSVLAWYQQKPGKAPKLLIYDASSLESGVPSRFSGSGSGTDFTLTISSLQPEDFATYYCQQSNSYPLTFGGGTKVEIKR", "modifications": "3B9 VL1-VH amino acid sequence; 39B9 VL1-VL amino acid sequence"}, "B2": {"name": "39B9 VL5: IL-6R antibody, heavy chain variable region SEQ ID NO:2, light chain variable region SEQ ID NO: 6 (antibody, V domains shown)", "VH": "B1 VH", "VL": "B1 VL with A1D, Q3L, L4M, G28D, V32W", "modifications": "3B9 VL1-VH amino acid sequence; 39B9 VL5-VL amino acid sequence"}, "B3": {"name": "12A: IL-6R antibody, heavy chain variable region SEQ ID NO:8, light chain variable region SEQ ID NO: 10 (antibody, V domains shown)", "VH": "QVQLVESWGGVVQPGRSLRLSCAASGFTFSNYDMYWVRQAPGKGLEWVAVILDDGNNNYYADSVKGRFTISRDNSKKKVYLQMNSLRAEDTAVYYCVRASPNWGLLDFWGQGTLVTVSS", "VL": "B1 VL with A1E, Q3V, V32W, S91F, L96I, G100Q, K103R, V104L", "modifications": "12A VH amino acid sequence; 12A VL amino acid sequence"}, "B4": {"name": "5C: IL-6R antibody, heavy chain variable region SEQ ID NO: 12, light chain variable region SEQ ID NO: 14 (antibody, V domains shown)", "VH": "B3 VH with E6Q, W8G, T28I, N31S, D53Y, N58K, K77N, K78T, L106F", "VL": "B1 VL with A1D, L4M, V32D, I48M, S91F, L96I, G100Q, K103R, V104L", "modifications": "5C VH amino acid sequence; 5C VL amino acid sequence"}}, "note": "Substitutions are numbered along the chain they refer to.", "data": [{"biological_target": "IL-6Rc (Homo sapiens, UniProt P05231+P08887)", "sequence (P08887 20-468)": "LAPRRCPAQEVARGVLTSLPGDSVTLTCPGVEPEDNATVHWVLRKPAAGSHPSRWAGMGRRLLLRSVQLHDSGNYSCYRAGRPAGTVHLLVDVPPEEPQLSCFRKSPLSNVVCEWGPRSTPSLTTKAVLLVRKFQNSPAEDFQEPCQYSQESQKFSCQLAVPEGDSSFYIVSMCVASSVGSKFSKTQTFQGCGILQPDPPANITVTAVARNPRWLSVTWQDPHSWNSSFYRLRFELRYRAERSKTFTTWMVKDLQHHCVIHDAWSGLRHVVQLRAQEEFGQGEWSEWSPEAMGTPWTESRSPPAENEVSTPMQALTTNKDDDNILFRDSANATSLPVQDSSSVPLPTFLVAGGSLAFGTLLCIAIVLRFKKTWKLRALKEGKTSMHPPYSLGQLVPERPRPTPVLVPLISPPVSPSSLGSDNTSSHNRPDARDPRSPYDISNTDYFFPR", "sequence (P05231 30-212)": "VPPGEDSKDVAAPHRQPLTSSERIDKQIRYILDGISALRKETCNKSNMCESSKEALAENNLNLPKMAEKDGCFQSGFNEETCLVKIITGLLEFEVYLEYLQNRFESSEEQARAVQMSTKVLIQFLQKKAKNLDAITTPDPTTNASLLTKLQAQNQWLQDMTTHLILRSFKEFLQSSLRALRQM", "details": "binding to gp130 to induce the signaling cascade; WO/2009/140348", "values": [{"molecule": "B1", "functional activity of IL-6Rc in vitro": "inhibit the functional activity of IL-6Rc"}, {"molecule": "B2", "functional activity of IL-6Rc in vitro": "inhibit the functional activity of IL-6Rc"}, {"molecule": "B3", "functional activity of IL-6Rc in vitro": "inhibit the functional activity of IL-6Rc"}, {"molecule": "B4", "functional activity of IL-6Rc in vitro": "inhibit the functional activity of IL-6Rc"}]}]}
